Source: the supplement of paper PMC9170038

Key:
MS2 coat protein [1] = assay: apparent KD of MS2 coat protein, switch ON state; designed switch direction (-1 OFF switch, 1 ON switch): 1; higher = weaker reporter binding; settings: FMN input: 0 or 200 uM; Eterna round: R93 (includes R88 designs)
Summary of the method: (§1)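 Titration buffer: 100 mM Tris-HCl pH 7.5, 80 mM KCl, 4 mM MgCl2, without or with constant ligand. Designed RNA switches transcribed on-chip from Illumina sequencing clusters received SNAP-549-labelled MS2 coat protein in twofold steps from 0.7 or 1.5 nM to 3 µM. Apparent KD is the median per design of fits to normalised cluster binding curves.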

MS2 coat protein [2] = assay: apparent KD of MS2 coat protein, switch OFF state (with FMN for OFF switches, without FMN for ON switches); designed switch direction (-1 OFF switch, 1 ON switch): 1; higher = weaker reporter binding; settings: FMN input: 0 or 200 uM; Eterna round: R93 (includes R88 designs)
Summary of the method: as §1

Sequence	apparent KD of MS2 coat protein (MS2 coat protein [1]) [µM]	apparent KD of MS2 coat protein (MS2 coat protein [2]) [µM]
GAAGACAUAGUUCAGGAUAUAUGAAUAGUCACAUGAGGAUCACCCAUGUGCAUUUAUAUGCGCACAUAGAAGGGAGGUAGUUAUC [SameState2 Malc#24]	0.0336	0.0235
GAAAAACAUGAGGAUCACCCAUGUGGAAAUAUGGGAGGAUAUACUAAGACGAAAGUCGAUGUAGAAGGCCUAAAAG [Same State 1.4e (Mat - Mod of Eli - )]	0.022	0.0829
AAAUAAAUGACUAAGGAUAUAUCGAAGAAGACAUGAGGAUCACCCAUGUGAUAAUAAAAAGGGUGGUAGAAGGUAGUCAACAAAC [Mod 5 of Pariah 4 by Hyphema in Round 1]	0.0654	0.116
AAAAGACAUGAGGAUCACCCAUGUGAAAACGUGCGAGGAUAUGUAUGGAAACCAUACUGUACAGAAGGCGCGUGUC [SS1 - 83]	0.0244	0.0323
AAAAGACAUGAGGAUCACCCAUGUGAAAACAUACAAGGAUAUGUGUGGAAACCGUACUAUACAGAAGGUGUAUGUC [SS1 - 85]	0.0197	0.0285
CAAACAACAGCACAGGAUAUCCAUAUAAUAACAUGAGGAUCACCCAUGUAAGCGGAAAAUAACGCGGAGAAGGGUGAACACACAA [Default title]	0.13	0.0351
GAAAUACAUGAGGAUCACCCAUGUUAGGUGGGUCAAGGAUAUUAAGGUAAAUAAAAACCUUGAGAAGGUGAAUAAA [JR_SS001_Sub203]	0.157	0.239
AGAAAACAUGAGGAUCACCCAUGUGACAAUAUGGGAGGAUAUACGAACACGAAAGUCGAAGUAGAAGGCCUAAAGA [Garnet 53]	0.0263	0.0757
AAAAAACAUGAGGAUCACCCAUGUCCAAAAAAAAAAGGAUAUGCAAAAAAAAAAAAAAAAGCAGAAGGUUUAAAAA [Same State 1]	0.0412	0.0451
AGAAAACAUGAGGAUCACCCAUGUAGAAAUAUGGGAGGAUAUACGAGGACGAAAGUCAAAGUAGAAGGCCUAAAGA [Mat - Same State 1 - Meechl mod - D125]	0.021	0.0712
ACCCGCAGCCGUCAGGAUAUGUUCGCGUCAACAUGAGGAUCACCCAUGUGUGACAAGAAGUACACGCAGAAGGGAUCAAUGCGGG [Bienri]	0.0137	0.0164
AAAAUACAUGAGGAUCACCCAUGUCCGACAAAUCAAGGAUAUGAUAGCCUAACCAGGCUGUUAGAAGGUGAAAGAA [Laarera]	0.637	0.0511
AAAAUAAAAUAAAAGGAUAUAAAAAUAUAUACAUGAGGAUCACCCAUGUAUAUAAAAAUAAAAUAAAAGAAGGAAUAAAAAUAAA [SS2 507: MS2 7]	0.0227	0.0189
AAAAAACAUGAGGAUCACCCAUGUGAGAACAUGGGAGGAUAUACAAGGACGAGAGUCAAGGUAGAAGGCCUAAAGA [Mat - Same State 1 - Mod - D193]	0.545	0.0211
CGAAAGGAGAGAGAGGAUAUCCAAAGGAAAACAUGAGGAUCACCCAUGUAGAAGGUAGGAGAUUGGGAGAAGGCUCAAGCUAAAC [salish99-ss2-158]	0.0402	0.0373
UAACUACAUGAGGAUCACCCAUGUCUCCAGGGUCAAGGAUAUGGGCGUAGACAAACUACACCAGAAGGUGAUCCAA [Rireenon]	0.156	0.307
UAUUAUUACACGAAGGAUAUCGAUAAUAGUACAUGAGGAUCACCCAUGUUCAUAUCAUUUUAGUUCGAGAAGGUCGAGGGUGAAG [JR_SS002_Sub709]	0.0239	0.0201
GAGGACGUAGGAUAGGAUAUAUGAAUAAUUACAUGAGGAUCACCCAUGUCCAUUUAUAUGGGAACAUAGAAGGGUUGUGGUUAUC [SameState2 Malc#35]	0.446	0.491
GAAAAACAUGAGGAUCACCCAUGUAGAAAUAUGGGAGGAUAUACUAUGACGAAAGUCAAAGUAGAAGGUCUAAAAG [JL S1 M-MoE mod 6 In the Read]	0.166	0.125
